These sequences were tested on AncSZ (assay: phosphorylation enrichment, bacterial display (enrichment ratio); higher = better substrate or ligand; peptides without Tyr show the background).
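Further: 11-residue human phosphosite peptides and single-mutation variants displayed on the E. coli surface, counted by deep sequencing, each peptide's frequency after selection divided by its frequency in the unselected input library; frequency after pTyr selection over input frequency; kinase dosed for 20-30% of maximal phosphorylation in three min.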

Sequence | phosphorylation enrichment
GITTGYLVLKE [DNMT3B_Y588_A585T] | 0.668
RIVEIYSRRLQ [GCH1_Y175] | 0.942
VASMFYTLVIP [OR8K3_Y277_I275M] | 1.96
RNNTEYVRDIG [MUSK_Y577_I575T] | 0.717
EEHIPCTHMNG [INSR_Y1361_Y1361C] | 0.916
QMRLKYSQSDL [SMC1A_Y714] | 0.704
PDMHSYVVRFN [GRIN2D_Y732_M733V_YF] | 0.882
FPIDHYLGKEM [G6PD_Y202_R198P_YF] | 0.789
KGLMPYGQPRP [SRRT_Y798_Q793K] | 0.444
LEAFQYIGESQ [MSH2_Y856_E853A] | 1.21
FSDQVYRQHRK [TH_Y230_R233H] | 0.555
ADRNHYRRYPR [YBX1_Y145] | 0.613
EVRTQYEEIAQ [KRT76_Y361_A359T] | 1.08
FLEKFYKFGSR [NNMT_Y25_YF] | 0.723
FEPDAYFDLDQ [ELP5_Y302_D303Y_YF] | 1.52
VVGMLYVGGLP [LAMA2_Y2886] | 0.999
SVETPYVSVTF [NDRG2_Y47_G48V] | 1.26

Sequence | phosphorylation enrichment
LLVVLYKYRCF [PSEN1_Y154_Y159F] | 1.32
DTQNSYGCATS [TSC1_Y304] | 0.7
AESPEYVHMFT [FAM111A_Y511_YF] | 1.32
IKELTYQTEED [MYH7_Y1852] | 1.27
SHLSAFPALEG [CD5_Y465_Y465F] | 0.553
MPLTEYLKRIK [CNGB3_Y200] | 0.621
SEEVTYATLTF [CLEC12B_Y7] | 1.48
SSAAGYACLAF [MVD_Y131_YF] | 0.948
LSNPAYRLLLA [DDR1_Y513] | 1.27
TLLERYGMTEI [ACSF3_Y355] | 0.621
CTTIHCNFMCN [TP53_Y234_Y234C_YF] | 0.782
NCFKYYMSDDI [ATRX_Y204] | 1.33
SECCKYKIDNL [OSMR_Y689_P694L] | 0.864
PVGVLYEVKVF [PTS_Y128_K129E_YF] | 2.17
KLKEKYQKDIA [HMGB1_Y155_E156Q] | 0.57
AKVKPYINGTS [IBTK_Y1064_V1065I] | 0.471

What follows are sequences tested against EPHB1 (UniProt P54762) in the same assay as above.
Chain of EPHB1 (P54762 whole entry, looked up): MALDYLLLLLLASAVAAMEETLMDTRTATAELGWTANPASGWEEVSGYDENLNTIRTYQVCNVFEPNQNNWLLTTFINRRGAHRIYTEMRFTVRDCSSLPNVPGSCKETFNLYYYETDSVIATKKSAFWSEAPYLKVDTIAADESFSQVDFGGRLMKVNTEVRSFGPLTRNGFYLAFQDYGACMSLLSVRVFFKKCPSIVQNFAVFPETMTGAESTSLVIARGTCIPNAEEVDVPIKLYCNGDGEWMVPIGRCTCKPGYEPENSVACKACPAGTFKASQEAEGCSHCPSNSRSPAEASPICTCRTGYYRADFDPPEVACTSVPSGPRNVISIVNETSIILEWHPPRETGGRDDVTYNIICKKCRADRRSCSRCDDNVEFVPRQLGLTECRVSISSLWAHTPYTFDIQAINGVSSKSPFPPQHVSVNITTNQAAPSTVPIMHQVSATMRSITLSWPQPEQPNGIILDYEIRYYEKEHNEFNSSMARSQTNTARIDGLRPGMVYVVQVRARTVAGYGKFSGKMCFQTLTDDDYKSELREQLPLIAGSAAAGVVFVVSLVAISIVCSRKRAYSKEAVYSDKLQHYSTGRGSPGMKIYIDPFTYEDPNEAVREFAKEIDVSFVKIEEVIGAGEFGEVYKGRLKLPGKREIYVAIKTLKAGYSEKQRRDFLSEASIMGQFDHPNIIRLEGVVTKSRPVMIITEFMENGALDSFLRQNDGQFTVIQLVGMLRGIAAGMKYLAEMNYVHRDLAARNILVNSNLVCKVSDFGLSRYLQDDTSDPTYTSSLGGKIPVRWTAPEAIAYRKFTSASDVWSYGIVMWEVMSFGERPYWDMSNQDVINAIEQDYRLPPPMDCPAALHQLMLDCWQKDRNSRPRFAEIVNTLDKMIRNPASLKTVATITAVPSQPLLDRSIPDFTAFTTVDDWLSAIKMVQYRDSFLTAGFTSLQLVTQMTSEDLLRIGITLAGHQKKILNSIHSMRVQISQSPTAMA

Sequence | phosphorylation enrichment
GITTGYLVLKE [DNMT3B_Y588_A585T] | 0.39
RIVEIYSRRLQ [GCH1_Y175] | 0.645
VASMFYTLVIP [OR8K3_Y277_I275M] | 1.13
RNNTEYVRDIG [MUSK_Y577_I575T] | 0.422
EEHIPCTHMNG [INSR_Y1361_Y1361C] | 0.581
QMRLKYSQSDL [SMC1A_Y714] | 0.335
PDMHSYVVRFN [GRIN2D_Y732_M733V_YF] | 0.658
FPIDHYLGKEM [G6PD_Y202_R198P_YF] | 0.404
KGLMPYGQPRP [SRRT_Y798_Q793K] | 0.365
LEAFQYIGESQ [MSH2_Y856_E853A] | 0.711
FSDQVYRQHRK [TH_Y230_R233H] | 0.335
ADRNHYRRYPR [YBX1_Y145] | 0.424
EVRTQYEEIAQ [KRT76_Y361_A359T] | 0.679
FLEKFYKFGSR [NNMT_Y25_YF] | 0.592
FEPDAYFDLDQ [ELP5_Y302_D303Y_YF] | 0.678
VVGMLYVGGLP [LAMA2_Y2886] | 0.727
SVETPYVSVTF [NDRG2_Y47_G48V] | 0.632

Sequence | phosphorylation enrichment
LLVVLYKYRCF [PSEN1_Y154_Y159F] | 1.23
DTQNSYGCATS [TSC1_Y304] | 0.432
AESPEYVHMFT [FAM111A_Y511_YF] | 0.579
IKELTYQTEED [MYH7_Y1852] | 0.591
SHLSAFPALEG [CD5_Y465_Y465F] | 0.431
MPLTEYLKRIK [CNGB3_Y200] | 0.266
SEEVTYATLTF [CLEC12B_Y7] | 0.98
SSAAGYACLAF [MVD_Y131_YF] | 0.536
LSNPAYRLLLA [DDR1_Y513] | 0.945
TLLERYGMTEI [ACSF3_Y355] | 0.415
CTTIHCNFMCN [TP53_Y234_Y234C_YF] | 0.67
NCFKYYMSDDI [ATRX_Y204] | 0.748
SECCKYKIDNL [OSMR_Y689_P694L] | 0.551
PVGVLYEVKVF [PTS_Y128_K129E_YF] | 1.5
KLKEKYQKDIA [HMGB1_Y155_E156Q] | 0.454
AKVKPYINGTS [IBTK_Y1064_V1065I] | 0.295

These sequences were tested against EPHB2 (UniProt P29323) in the same assay as above.
Chain of EPHB2 (P29323 whole entry, looked up): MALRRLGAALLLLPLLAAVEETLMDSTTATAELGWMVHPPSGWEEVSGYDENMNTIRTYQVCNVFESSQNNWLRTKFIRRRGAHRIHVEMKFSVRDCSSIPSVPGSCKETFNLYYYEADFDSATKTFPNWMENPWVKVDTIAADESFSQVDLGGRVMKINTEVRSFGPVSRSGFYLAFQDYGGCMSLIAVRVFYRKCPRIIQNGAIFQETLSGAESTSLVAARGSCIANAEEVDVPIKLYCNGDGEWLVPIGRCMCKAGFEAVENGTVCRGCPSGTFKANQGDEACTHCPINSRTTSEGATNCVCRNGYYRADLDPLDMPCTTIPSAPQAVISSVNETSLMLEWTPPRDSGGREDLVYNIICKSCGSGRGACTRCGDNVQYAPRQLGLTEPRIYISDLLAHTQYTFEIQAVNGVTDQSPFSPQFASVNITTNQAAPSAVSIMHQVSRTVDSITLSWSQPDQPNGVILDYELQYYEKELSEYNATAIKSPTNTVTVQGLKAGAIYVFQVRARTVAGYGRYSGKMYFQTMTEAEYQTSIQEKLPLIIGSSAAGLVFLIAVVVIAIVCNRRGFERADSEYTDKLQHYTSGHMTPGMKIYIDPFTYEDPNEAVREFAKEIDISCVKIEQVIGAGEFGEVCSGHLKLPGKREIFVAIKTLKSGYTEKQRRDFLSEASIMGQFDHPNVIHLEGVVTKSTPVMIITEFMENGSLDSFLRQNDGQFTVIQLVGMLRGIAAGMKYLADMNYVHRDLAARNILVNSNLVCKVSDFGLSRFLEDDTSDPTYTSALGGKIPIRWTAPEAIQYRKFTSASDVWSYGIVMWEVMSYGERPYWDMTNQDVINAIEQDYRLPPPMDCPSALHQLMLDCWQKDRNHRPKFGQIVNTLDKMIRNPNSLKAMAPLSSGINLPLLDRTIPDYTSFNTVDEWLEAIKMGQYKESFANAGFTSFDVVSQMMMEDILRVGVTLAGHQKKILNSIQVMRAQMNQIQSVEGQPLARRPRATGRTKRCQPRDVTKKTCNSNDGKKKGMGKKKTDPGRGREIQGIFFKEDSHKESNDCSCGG

Sequence | phosphorylation enrichment
GITTGYLVLKE [DNMT3B_Y588_A585T] | 0.532
RIVEIYSRRLQ [GCH1_Y175] | 0.92
VASMFYTLVIP [OR8K3_Y277_I275M] | 0.82
RNNTEYVRDIG [MUSK_Y577_I575T] | 0.41
EEHIPCTHMNG [INSR_Y1361_Y1361C] | 0.597
QMRLKYSQSDL [SMC1A_Y714] | 0.476
PDMHSYVVRFN [GRIN2D_Y732_M733V_YF] | 0.464
FPIDHYLGKEM [G6PD_Y202_R198P_YF] | 0.485
KGLMPYGQPRP [SRRT_Y798_Q793K] | 0.371
LEAFQYIGESQ [MSH2_Y856_E853A] | 0.585
FSDQVYRQHRK [TH_Y230_R233H] | 0.452
ADRNHYRRYPR [YBX1_Y145] | 0.425
EVRTQYEEIAQ [KRT76_Y361_A359T] | 0.504
FLEKFYKFGSR [NNMT_Y25_YF] | 0.6
FEPDAYFDLDQ [ELP5_Y302_D303Y_YF] | 0.656
VVGMLYVGGLP [LAMA2_Y2886] | 0.644
SVETPYVSVTF [NDRG2_Y47_G48V] | 0.629

Sequence | phosphorylation enrichment
LLVVLYKYRCF [PSEN1_Y154_Y159F] | 1.03
DTQNSYGCATS [TSC1_Y304] | 0.445
AESPEYVHMFT [FAM111A_Y511_YF] | 0.598
IKELTYQTEED [MYH7_Y1852] | 0.612
SHLSAFPALEG [CD5_Y465_Y465F] | 0.367
MPLTEYLKRIK [CNGB3_Y200] | 0.365
SEEVTYATLTF [CLEC12B_Y7] | 1.07
SSAAGYACLAF [MVD_Y131_YF] | 0.455
LSNPAYRLLLA [DDR1_Y513] | 1.1
TLLERYGMTEI [ACSF3_Y355] | 0.516
CTTIHCNFMCN [TP53_Y234_Y234C_YF] | 0.546
NCFKYYMSDDI [ATRX_Y204] | 0.625
SECCKYKIDNL [OSMR_Y689_P694L] | 0.384
PVGVLYEVKVF [PTS_Y128_K129E_YF] | 0.91
KLKEKYQKDIA [HMGB1_Y155_E156Q] | 0.588
AKVKPYINGTS [IBTK_Y1064_V1065I] | 0.274

These sequences were tested against FGFR1 (UniProt P11362) in the same assay as above.
Chain of FGFR1 (P11362 whole entry, looked up): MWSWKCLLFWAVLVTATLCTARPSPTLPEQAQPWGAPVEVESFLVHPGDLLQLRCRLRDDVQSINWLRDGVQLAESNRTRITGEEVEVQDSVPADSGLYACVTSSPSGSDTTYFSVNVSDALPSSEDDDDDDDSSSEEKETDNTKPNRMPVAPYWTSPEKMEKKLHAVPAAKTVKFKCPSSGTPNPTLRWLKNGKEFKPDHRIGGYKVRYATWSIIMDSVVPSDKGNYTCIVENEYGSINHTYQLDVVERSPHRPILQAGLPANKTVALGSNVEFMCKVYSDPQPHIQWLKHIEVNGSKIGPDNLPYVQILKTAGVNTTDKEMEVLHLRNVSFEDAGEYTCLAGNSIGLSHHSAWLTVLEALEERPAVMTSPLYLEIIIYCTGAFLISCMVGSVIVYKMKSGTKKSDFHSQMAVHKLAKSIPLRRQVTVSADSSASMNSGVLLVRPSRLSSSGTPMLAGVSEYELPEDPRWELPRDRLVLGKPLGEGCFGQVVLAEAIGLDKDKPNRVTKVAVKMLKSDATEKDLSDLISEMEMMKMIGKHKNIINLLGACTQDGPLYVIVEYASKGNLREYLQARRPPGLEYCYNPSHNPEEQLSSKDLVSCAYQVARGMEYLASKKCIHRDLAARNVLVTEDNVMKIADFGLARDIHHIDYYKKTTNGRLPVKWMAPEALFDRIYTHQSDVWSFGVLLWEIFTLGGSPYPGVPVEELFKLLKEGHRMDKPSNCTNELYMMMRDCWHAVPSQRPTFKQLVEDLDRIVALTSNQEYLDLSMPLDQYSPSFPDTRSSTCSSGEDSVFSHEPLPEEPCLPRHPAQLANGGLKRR

Sequence | phosphorylation enrichment
GITTGYLVLKE [DNMT3B_Y588_A585T] | 0.456
RIVEIYSRRLQ [GCH1_Y175] | 0.777
VASMFYTLVIP [OR8K3_Y277_I275M] | 2.79
RNNTEYVRDIG [MUSK_Y577_I575T] | 0.418
EEHIPCTHMNG [INSR_Y1361_Y1361C] | 0.592
QMRLKYSQSDL [SMC1A_Y714] | 0.437
PDMHSYVVRFN [GRIN2D_Y732_M733V_YF] | 0.78
FPIDHYLGKEM [G6PD_Y202_R198P_YF] | 0.492
KGLMPYGQPRP [SRRT_Y798_Q793K] | 0.388
LEAFQYIGESQ [MSH2_Y856_E853A] | 0.614
FSDQVYRQHRK [TH_Y230_R233H] | 0.388
ADRNHYRRYPR [YBX1_Y145] | 0.527
EVRTQYEEIAQ [KRT76_Y361_A359T] | 0.49
FLEKFYKFGSR [NNMT_Y25_YF] | 0.571
FEPDAYFDLDQ [ELP5_Y302_D303Y_YF] | 5.04
VVGMLYVGGLP [LAMA2_Y2886] | 0.491
SVETPYVSVTF [NDRG2_Y47_G48V] | 0.897

Sequence | phosphorylation enrichment
LLVVLYKYRCF [PSEN1_Y154_Y159F] | 1.11
DTQNSYGCATS [TSC1_Y304] | 0.422
AESPEYVHMFT [FAM111A_Y511_YF] | 1.69
IKELTYQTEED [MYH7_Y1852] | 0.54
SHLSAFPALEG [CD5_Y465_Y465F] | 0.354
MPLTEYLKRIK [CNGB3_Y200] | 0.381
SEEVTYATLTF [CLEC12B_Y7] | 1.49
SSAAGYACLAF [MVD_Y131_YF] | 0.446
LSNPAYRLLLA [DDR1_Y513] | 1.17
TLLERYGMTEI [ACSF3_Y355] | 0.404
CTTIHCNFMCN [TP53_Y234_Y234C_YF] | 0.45
NCFKYYMSDDI [ATRX_Y204] | 0.959
SECCKYKIDNL [OSMR_Y689_P694L] | 0.462
PVGVLYEVKVF [PTS_Y128_K129E_YF] | 1.02
KLKEKYQKDIA [HMGB1_Y155_E156Q] | 0.565
AKVKPYINGTS [IBTK_Y1064_V1065I] | 0.297

From the supplement of paper PMC10065799, “High-throughput profiling of sequence recognition by tyrosine kinases and SH2 domains using bacterial peptide display” (eLife, 2023)
